Assays:
[1] = target: T1, porcine trkC product gp145^trkC (porcine); experiment: Scatchard analysis, [125I]-NT-3 on R4-31 cells at 4°C, low affinity sites
T1 construct: Expressed from pFL20 in NIH3T3 cells (R4-31); also called trkC receptor

[2] = target: T2, mouse trkB tyrosine protein kinase gp145^trkB (mouse, UniProt P15209 32-821); experiment: cell-based or functional assay
[3] = target: T3, human trk proto-oncogene product gp140^trk (human, UniProt P04629 33-796); experiment: cell-based or functional assay
[4] = target: T1, porcine trkC product gp145^trkC; experiment: Scatchard analysis, [125I]-NT-3 on R4-31 cells at 4°C, high affinity sites
[5] = target: T2, mouse trkB tyrosine protein kinase …; experiment: cell-based or functional assay; remark: listed apart in the source
[6] = target: T3, human trk proto-oncogene product …; experiment: cell-based or functional assay; remark: listed apart in the source
[7] = target: T2, mouse trkB tyrosine protein kinase …; experiment: [125I]-βNGF binding to cells at 4°C
[8] = target: T4, rat low affinity NGF receptor gp80^LNGFR (rat, UniProt P07174 30-425); experiment: Scatchard analysis, [125I]-βNGF on PC12 cells at 4°C, low affinity receptors
T4 construct: whole, on cells
T4 sequence (looked up): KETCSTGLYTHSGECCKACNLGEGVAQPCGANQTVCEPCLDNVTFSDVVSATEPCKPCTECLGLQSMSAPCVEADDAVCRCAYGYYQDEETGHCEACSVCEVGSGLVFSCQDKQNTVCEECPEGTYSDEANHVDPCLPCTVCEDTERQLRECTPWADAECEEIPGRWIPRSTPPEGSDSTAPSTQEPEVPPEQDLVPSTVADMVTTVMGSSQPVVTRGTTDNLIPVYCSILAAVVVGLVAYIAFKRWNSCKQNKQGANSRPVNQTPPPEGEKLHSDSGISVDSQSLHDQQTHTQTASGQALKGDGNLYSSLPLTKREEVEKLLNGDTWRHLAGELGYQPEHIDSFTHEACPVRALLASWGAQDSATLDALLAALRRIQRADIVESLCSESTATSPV

[9] = target: T3, human trk proto-oncogene product …; experiment: Scatchard analysis, [125I]-βNGF on Sf9 cells infected with pAcS2, high affinity receptors
[10] = target: T3, human trk proto-oncogene product …; experiment: cell-based or functional assay; remark: listed apart in the source
[11] = target: T3, human trk proto-oncogene product …; experiment: Scatchard analysis, [125I]-βNGF on E25-427 cells at 4°C, high affinity receptors
[12] = target: T3, human trk proto-oncogene product …; experiment: Scatchard analysis, [125I]-βNGF on E25-48 cells at 4°C, low affinity receptors
[13] = target: T5, endogenous trk proto-oncogene product of rat PC12 cells (rat, UniProt P35739 33-799); experiment: Scatchard analysis, [125I]-βNGF on PC12 cells at 4°C, high affinity receptors
T5 construct: whole, on cells; also called PC12 endogenous trk proto-oncogene product; gp140^trk of PC12 cells

[14] = target: T3, human trk proto-oncogene product …; experiment: Scatchard analysis, [125I]-βNGF on Sf9 cells infected with pAcS2, low affinity receptors
[15] = target: T3, human trk proto-oncogene product …; experiment: Scatchard analysis, [125I]-βNGF on E25-427 cells at 4°C, low affinity receptors
[16] = target: T3, human trk proto-oncogene product …; experiment: Scatchard analysis, [125I]-βNGF on E25-48 cells at 4°C, high affinity receptors
[17] = target: mutant mouse trkB receptor gp145^trkB/S345 (mouse, UniProt P15209 32-821); experiment: cell-based or functional assay
[18] = target: T3, human trk proto-oncogene product …; experiment: competition with [125I]-NGF on E25-48 cells

T2 sequence (P15209 32-821): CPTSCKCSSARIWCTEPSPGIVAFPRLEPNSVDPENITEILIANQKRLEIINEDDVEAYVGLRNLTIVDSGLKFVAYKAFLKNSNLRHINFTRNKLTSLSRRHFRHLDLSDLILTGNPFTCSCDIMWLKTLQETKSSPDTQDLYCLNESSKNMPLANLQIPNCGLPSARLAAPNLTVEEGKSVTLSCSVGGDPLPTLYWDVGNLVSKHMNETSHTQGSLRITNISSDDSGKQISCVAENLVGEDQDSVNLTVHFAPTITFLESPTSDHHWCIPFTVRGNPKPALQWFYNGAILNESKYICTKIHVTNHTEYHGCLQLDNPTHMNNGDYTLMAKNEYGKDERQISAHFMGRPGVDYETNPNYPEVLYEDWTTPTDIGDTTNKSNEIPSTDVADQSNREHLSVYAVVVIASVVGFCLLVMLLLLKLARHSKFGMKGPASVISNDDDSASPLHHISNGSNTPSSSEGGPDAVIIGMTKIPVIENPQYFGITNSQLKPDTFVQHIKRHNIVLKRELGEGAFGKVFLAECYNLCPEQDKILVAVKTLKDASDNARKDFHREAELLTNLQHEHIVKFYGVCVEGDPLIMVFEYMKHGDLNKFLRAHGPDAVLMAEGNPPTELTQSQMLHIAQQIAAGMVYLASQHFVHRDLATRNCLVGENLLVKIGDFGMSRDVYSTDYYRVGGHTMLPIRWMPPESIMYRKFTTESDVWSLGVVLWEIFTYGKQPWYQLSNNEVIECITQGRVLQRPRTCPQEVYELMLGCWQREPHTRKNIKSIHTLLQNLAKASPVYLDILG
T3 sequence (P04629 33-796): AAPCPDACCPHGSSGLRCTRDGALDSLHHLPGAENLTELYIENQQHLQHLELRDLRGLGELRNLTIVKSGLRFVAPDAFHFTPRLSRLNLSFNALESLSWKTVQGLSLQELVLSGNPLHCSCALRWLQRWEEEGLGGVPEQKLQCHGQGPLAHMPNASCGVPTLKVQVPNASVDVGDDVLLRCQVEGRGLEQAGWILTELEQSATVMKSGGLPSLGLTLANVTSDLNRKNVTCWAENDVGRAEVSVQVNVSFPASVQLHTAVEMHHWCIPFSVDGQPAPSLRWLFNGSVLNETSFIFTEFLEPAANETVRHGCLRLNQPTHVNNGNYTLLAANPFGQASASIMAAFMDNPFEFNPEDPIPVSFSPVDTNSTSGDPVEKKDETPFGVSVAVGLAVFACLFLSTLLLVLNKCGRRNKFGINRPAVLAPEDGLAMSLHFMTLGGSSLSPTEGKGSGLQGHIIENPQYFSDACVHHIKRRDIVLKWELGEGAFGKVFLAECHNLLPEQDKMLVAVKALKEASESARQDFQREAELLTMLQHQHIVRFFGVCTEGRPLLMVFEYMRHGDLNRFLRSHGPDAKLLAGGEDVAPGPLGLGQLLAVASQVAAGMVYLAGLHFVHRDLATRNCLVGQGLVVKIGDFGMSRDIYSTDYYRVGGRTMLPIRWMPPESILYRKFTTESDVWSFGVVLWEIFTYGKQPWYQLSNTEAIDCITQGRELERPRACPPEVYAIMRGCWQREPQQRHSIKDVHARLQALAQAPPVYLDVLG
Sequence of mutant mouse trkB receptor gp145^trkB/S345 (P15209 other isoform, or with tags, fused parts or gaps mutant): as the sequence (P15209 32-821) above, with C314S counted along it
T5 sequence (P35739 33-799): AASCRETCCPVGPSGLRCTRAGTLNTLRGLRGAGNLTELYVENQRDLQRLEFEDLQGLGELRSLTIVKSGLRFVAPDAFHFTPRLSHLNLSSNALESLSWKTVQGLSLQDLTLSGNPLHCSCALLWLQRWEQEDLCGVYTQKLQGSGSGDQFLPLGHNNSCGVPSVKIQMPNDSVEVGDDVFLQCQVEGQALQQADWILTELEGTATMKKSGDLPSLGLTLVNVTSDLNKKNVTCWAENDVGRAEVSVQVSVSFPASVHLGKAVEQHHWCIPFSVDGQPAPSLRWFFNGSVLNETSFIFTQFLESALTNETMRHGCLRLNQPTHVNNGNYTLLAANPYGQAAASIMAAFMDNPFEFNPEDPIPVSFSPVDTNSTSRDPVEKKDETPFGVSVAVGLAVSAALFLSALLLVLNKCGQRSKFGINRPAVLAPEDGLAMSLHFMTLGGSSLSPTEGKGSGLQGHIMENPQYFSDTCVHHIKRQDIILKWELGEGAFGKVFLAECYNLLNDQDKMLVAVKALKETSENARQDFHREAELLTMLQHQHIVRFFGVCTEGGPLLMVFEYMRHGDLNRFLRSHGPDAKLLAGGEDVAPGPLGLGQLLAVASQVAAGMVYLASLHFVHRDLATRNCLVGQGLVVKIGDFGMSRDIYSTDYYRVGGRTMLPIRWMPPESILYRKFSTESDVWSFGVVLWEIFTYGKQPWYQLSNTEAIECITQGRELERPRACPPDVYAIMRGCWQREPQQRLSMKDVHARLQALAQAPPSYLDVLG

B1: human neurotrophin-3 (NT-3) (ligand, UniProt P20783 139-257, looked up)
chain: YAEHKSHRGEYSVCDSESLWVTDKSSAIDIRGHQVTVLGEIKTGNSPVKQYFYETRCKEARPVKNGCRGIDDKHWNSQCKTSQTYVRALTSENNKLVGWRWIRIDTSCVCALSRKIGRT
modifications: 125I (Bolton-Hunter) where used as tracer
notes: mature; also called [125I]-labeled NT-3
Kd [1]: 4 nM
transformation efficiency with pFRK44, against BDNF [2]: 500 fold lower
efficiency in transformation assays with pDM69, against NGF [3]: 200 fold less efficient than NGF
Kd [4]: 0.026 nM
transforming activity of neurotrophic factor DNA in the presence of trkB DNA [5]: 100 ffu per µg of DNA
transforming activity of neurotrophic factor DNA in the presence of trk DNA [6]: 300 ffu per µg of DNA

B2: murine 2.5S NGF (βNGF) (ligand, UniProt P01139 122-241, looked up)
chain: SSTHPVFHMGEFSVCDSVSVWVGDKTTATDIKGKEVTVLAEVNINNSVFRQYFFETKCRASNPVESGCRGIDSKHWNSYCTTTHTFVKALTTDEKQAAWRFIRIDTACVCVLSRKATRRG
modifications: 125I label where used as tracer
notes: mature; The background says that βNGF exists as a 26,000 d homodimer; also called [125I]-labeled βNGF; [125I]-NGF
binding result [7]: no binding (tested: 1 nM)
Kd [8]: 33.2 nM
Kd [9]: 0.42 nM
NGF stimulation of agar colonies, 10^3 E25-48 cells [10]: 9 fold
NGF stimulation of agar colonies, 10^4 E25-48 cells [10]: 7 fold
Kd [11]: 0.12 nM
Kd [12]: 2.4 nM
transforming activity of neurotrophic factor DNA in the presence of trkB DNA [5]: < 1 ffu per µg of DNA
transforming activity of neurotrophic factor DNA in the presence of trk DNA [6]: 20000 ffu per µg of DNA
Kd [13]: 0.3 nM
Kd [14]: 13.7 nM
Kd [15]: 7 nM
Kd [16]: 0.09 nM

B3: Xenopus laevis neurotrophin-4 (XNT-4) (ligand, UniProt P24727 114-236, looked up)
chain: ASGSDSVSLSRRGELSVCDSVNVWVTDKRTAVDDRGKIVTVMSEIQTLTGPLKQYFFETKCNPSGSTTRGCRGVDKKQWISECKAKQSYVRALTIDANKLVGWRWIRIDTACVCTLLSRTGRT
transforming activity with gp145^trkB, against BDNF [2]: 5 fold lower than BDNF

B4: human brain-derived neurotrophic factor (BDNF) (ligand, UniProt P23560 129-247, looked up)
chain: HSDPARRGELSVCDSISEWVTAADKKTAVDMSGGTVTVLEKVPVSKGQLKQYFYETKCNPMGYTKEGCRGIDKRHWNSQCRTTQSYVRALTMDSKKRIGWRFIRIDTSCVCTLTIKRGR
modifications: 125I (Bolton-Hunter) where used as tracer in Example 5
notes: mature; also called [125I]-BDNF
efficiency in mediating the response to BDNF, against wild type gp145^trkB [17]: ~10 fold less efficient than wild type
binding result [18]: no binding (tested: 500 ng/ml)
transforming activity of neurotrophic factor DNA in the presence of trkB DNA [5]: 40000 ffu per µg of DNA
transforming activity of neurotrophic factor DNA in the presence of trk DNA [6]: < 1 ffu per µg of DNA

Source: EP0504914A2 (E.R. SQUIBB & SONS, INC., dated 1992)
